# According to publication PMC12162814:
# B1: 3AT DNA (dsDNA)
# DNA 1: CGCATATATGCG
# DNA 2: CGCATATATGCG
# Tests used:
# H-NSctd WT [1] = biological target: T1, H-NSctd WT (Salmonella enterica serovar Typhimurium, UniProt P0A1S2 85-137); test: ITC
# H-NSctd WT [2] = biological target: T1, H-NSctd WT; test: NMR titration
# H-NSctd WT [3] = biological target: T1, H-NSctd WT; test: NMR titration; remark: listed apart in the source
# H-NSctd K107A = H-NSctd K107A (Salmonella enterica serovar Typhimurium, UniProt P0A1S2 85-137, K107A); test: NMR titration
# H-NSctd T115A = H-NSctd T115A (Salmonella enterica serovar Typhimurium, UniProt P0A1S2 85-137, T115A); test: NMR titration
binder,measurement,setting,value
B1,Kd,H-NSctd WT [1],7.6 ± 0.5 µM
same,Kd,H-NSctd WT [2],6.3 ± 0.6 µM
same,Kd,H-NSctd WT [3],1.5 ± 0.5 µM
same,Kd,H-NSctd K107A,5.3 ± 1.6 µM
same,Kd,H-NSctd T115A,4.1 ± 1.2 µM
